In the assay the target is T1, SARS-CoV-2 S1 subunit-Fc (Fc-tagged S1 protein, The Native Antigen Company) (SARS-CoV-2, UniProt P0DTC2 14-674).
T1 construct: domain: S1 subunit
In words: BLI (BLItz), His-tagged CoVHH1 on Ni-NTA sensor, S1-Fc 0-693.1 nM in solution, global fitting.

A word on the Kd: it is the constant that tells how readily two partners part at equilibrium. A lower Kd goes with higher affinity. What is called koff is the first-order rate constant of dissociation. Lower therefore signals slow dissociation. Usually kon stands for the second-order rate constant of association. A high value points to faster complex formation.

B1: His-tagged CoVHH1 (VHH)
VHH: AEVQLVESGGGQVETGGSLRLSCQASGSTFSDYVMAWFRQRPGKEREFVATISRNGGTTTYGSSVKGRFTISRDNAKSTVYLQMNSLKPEDTAVYYCYAVGGDGDSWGQGTQVTVSSEPKTPKPQSHHHHHH
notes: also called CoVHH1-His; His-tagged VHH
On to B1, for which the Kd worked out at 7.13 nM, the koff was 0.000114 s⁻¹ and the on-rate constant (kon) amounted to 16000 M⁻¹ s⁻¹.
